Assays:
[1] = target: recombinant soluble homotrimeric HA of A/common magpie/Hong Kong/5052/07 (H5N1) (Influenza A virus A/common magpie/Hong Kong/5052/2007 (H5N1)); test: HA microarray, BCC supernatant; details: remark: other sources report otherwise
[2] = target: recombinant soluble homotrimeric HA, A/common magpie/Hong Kong/5052/07 (H5N1) (influenza A virus A/common magpie/Hong Kong/5052/2007 (H5N1)); test: microarray, trimeric HA, transfection supernatant; details: remark: other sources report otherwise

B1: TCN-521 (3280_D18) (antibody, V domains shown)
VH: EVQLVQSGGGLVQPGGSLRLACVVSGFTVTSNYITWVRQAPGKGLEWVSVIYSHGRAYYSASVNGRFTISRHTSKNTVYLEMNSLRPEDTAVYYCAGGGLVGGYDEYFFDYWGQGTLATVSS
VL: ETVLTQSPGTLSLTPGERATLSCRVGQSVSGSHLAWYQQKPGQAPRLLIYGASSRATGIPDRFGGSVSGTDFTLTISRLEPEDSAVYYCQQYGDSRYTFGQGTKLEIK
With B1 the Trimeric HA Binding RLU [1] was 13500 RLU.

B2: TCN-538 (3206_O17) (antibody, V domains shown)
VH: QITLKESGPTLVKPTQTLTLTCVFSGFSLSITGVRVGWIRQPPGKALEWLALISWDDEKHYSPSLQSRLTITKDTSKNQVVLTMTNLDPVDTATYYCARSTDRGHVLRYFGWMLPGDAFDVWGQGTMVTVSS
VL: DIVMTQSPDFLPVSLGERATINCKSSQRVLYSSNNKNYLAWYQLKPGQPPKLIIYWASTRESGVPDRFSGSGSGTEFTLTISSLQAEDVAVYYCQQYYSRPYTFGQGTKLEIK
Binder B2 has a Trimeric HA Binding RLU [2] of 3140 RLU and a Trimeric HA Binding RLU [1] of 18700 RLU.

B3: TCN-534 (5249_B02) (antibody, V domains shown)
VH: QVQLVQSGAEVKKPGSSVKVSCRESGGTFNGYTITWVRQAPGQGLEWMGGIIPMMGTVNYAQKLQGRVTITTDYFTKTAYMDLNNLRSEDTAMYYCVKIRYTGQQLLWGQGTLVTVSS
VL: DIQMTQSPSTLSASIGDRVTITCRASQSIASWLAWYQQKPGKAPKLLIYEAVNLESGVPSRFSGSGSGTDFTLTISSLQPDDFATYFCQHYGTISQTFGGGTKVEIK
For B3, the Trimeric HA Binding RLU [1] was 32500 RLU.

B4: TCN-537 (3194_D21) (antibody, V domains shown)
VH: QVQLQQWGSGLLKPSETLSLTCAVYGGSFRDDYWTWIRQPPGKGLEWIGEINHSGRTNYNPSLKSRVTISVDTSLKQFSLKVISVTAADTAVYYCARGTSHVSRYFDWLPPTNWFDPWGQGTQVTVSS
VL: DIVLTQSPGTLSLSPGERATLSCRASQSVSSSYLAWYQQKPGQAPRLVMYGAATRATGIPDRFSGSGSGPDFTLTISRLEPEDFAMYYCQQYGNSPITFGQGTRLEIK
B4 showed a Trimeric HA Binding RLU [2] of 2070 RLU and a Trimeric HA Binding RLU [1] of 18700 RLU.

B5: TCN-553 (5261_C18) (antibody, V domains shown)
VH: QVQVVQSGTEVKKPGSSVKVSCQTSGGRFMSYAITWVRQAPGQGLEWMGGIVPVFGTANYAQKFQGRVTITTDDSTRTAYMELSSLRSEDTAVYYCGFRYGSGYGFDSWGQGTLVTVSS
VL: EIVLTQSPGTLSLSPGERATLSCRASQSVSSSYLAWYQKKPGQAPRLLIYGASTRATGIPDRFTGSGSGTDFTLSISRLEPEDFAVYYCQHFGTSVFTFGGGTKVEIK
B5 gave a Trimeric HA Binding RLU [2] of 39200 RLU and a Trimeric HA Binding RLU [1] of 26000 RLU.

B6: TCN-543 (5081_G23) (antibody, V domains shown)
VH: QVHLVQSGAEVRKPGDSVKVSCKTSGYTFSTYPVAWVRQVPGQGLEWMGWISTYNGNTNFAQNFQGRVTLTTDTTTNTAYMEVRSLKFDDTAVYYCARVEGSYRDFWNNQNRFDPWGQGTLVTVSS
VL: SYVLTQPPSVSVAPGQTARISCGGSNIGGKSVHWYQQKPGQAPVLVVYDDSGRPSGIPERFSGSNSGDTATLTISRVEAGDEADYFCQVWDNFGGVFGTGTKVTVL
In the case of B6, the Trimeric HA Binding RLU [2] is reported as 1070 RLU.

B7: TCN-523 (5248_A17) (antibody, V domains shown)
VH: QVQLVQSGAEVKKPGSSVKVSCKASGGSFSNYAFSWVRQAPGQGLEWMGGTIPLLGTTNYAQKFQGRVTISADQFTSTAYMELGSLRSEDTAVYYCTRRKMTTAFDSWGQGTLVTVSS
VL: QPVLTQPPSASASLGASVTLTCTLSSAYSNYKVDWYQQRPGKGPRFVMRVGTGGIVGSKGDGIPDRFSVLGSGLNRYLTIKNIQEEDESDYHCGADHGSGSNFVSPYVFGGGTKLTVL
Binder B7 has a Trimeric HA Binding RLU [1] of 45800 RLU.

B8: TCN-546 (5089_L08) (antibody, V domains shown)
VH: QVQLQQWGAGLLKPSETLSLTCGVYGGSLSDYYWSWIRQPPGKGLEWIGEINHSGGTNYNPSLKRRVTISVDTSKKQFSLKMNSVTAADTAVYYCARGTDPDTEVYCRAGNCAAFDFWGQGTLVTVSS
VL: EIVLTQSPGTLSLSPGERATLSCRASHFVIGRAVAWYQQKPGQAPRLLIYGASSRATGIPDRFSGSGSGTDFTLTISRLETEDFAVFYCQHYGSSPRYAFGQGTKLEIK
Work on B8 yielded a Trimeric HA Binding RLU [2] of 1920 RLU.

B9: TCN-550 (5096_F06) (antibody, V domains shown)
VH: QVQLQESGPGLVKPSETLSLTCTVSGASINSHYWSWIRQPPGKGLEWIGYVYYSGSTTYNPSLKSRVTLSVDTSKNQFSLNLSSVTAADTAFYYCARHPYDVLTGSGDWFDPWGQGTLVTVSS
VL: SYVLTQAPSVSVAPGQTARITCGGNAIGSKKVHWYQHKAGQAPVLVVYDDTDRPSGIPERFSGSNSWSTATLTINRVEAGDEADYYCQVWDFTIDHVVFGGGTKLTVL
In the case of B9, the Trimeric HA Binding RLU [2] is reported as 993 RLU.

B10: TCN-552 (5249_I23) (antibody, V domains shown)
VH: QVQVVQSGAEVKKPGSSVRVSCQASGGTFMNYAIIWVRRAPGQGLEWMGGIIPVFPTPNYAQMFQGRVTISTDESRSTSFLELTNLRYEDTAVYYCARRIYHGGNSGFDFWGQGTLVTVSS
VL: EIVLTQSPATLSLSPGERATLSCRASQSVGNYLAWYQQKPGQAPRLLIYDSSNRAPGIPARFSGSGSGTDFTLTISSLAPEDFAVYYCQQRSKWPPMYSFGHGTKLEIK
With B10 the Trimeric HA Binding RLU [2] was 34600 RLU and the Trimeric HA Binding RLU [1] was 42200 RLU.

B11: TCN-535 (5246_P19) (antibody, V domains shown)
VH: QVQLVQSGSEVKKPGTSVKVSCTASGSVFTNYGISWVRQAPGQGLEWMGGIIPLFGAAKYAQKFQGRVTITADESTKTVYMELSRLTSKDTAIYFCAKAPRVYEYYFDQWGQGTPVTVSS
VL: EIVLTQSPGTLSLSPGERATLSCRASQSVSSSQLAWYQQKPGQAPRLIIYGASTRATGIPDRFSGSGSGTDFTLTIGRLEPEDFAVFFCQQYSTSPPTFGQGTKVDFK
Work on B11 yielded a Trimeric HA Binding RLU [2] of 477 RLU and a Trimeric HA Binding RLU [1] of 45900 RLU.

B12: TCN-555 (5246_L16) (antibody, V domains shown)
VH: QVQLVQSGAEVKRPGSSVKVSCTASGGIFRKNAISWVRQAPGQGLEWMGGIIAVFNTANYAQKFQNRVKITADESGNTAYMELSSLTSDDTAVYYCASHPKYFYGSGSYPDFWGQGTLVTVSS
VL: QSALTQPRSVSGSPGQSITISCTGGSSDIGASNSVSWYQQHPGKAPKLVIFDVTERPSGVPHRFSGSKSGNTASLTVSGLQPDDEADYFCCAYGGKYLVVFGGGTKVTVL
B12 was tested, and the Trimeric HA Binding RLU [2] was 33600 RLU and the Trimeric HA Binding RLU [1] was 16100 RLU.

B13: TCN-563 (5237_B21) (antibody, V domains shown)
VH: QVQLAQSGAEVKRPGSSVKVSCTASGGIFRKNAISWVRQAPGQGLEWMGGIIAVFNTANYAQKFQGRVKITADESGNTAYMELSSLRSDDTAVYYCASHPKYFYGSGSYPDFWGQGTLVTVSS
VL: QSALTQPRSVSGSPGQSVTISCTGSSSDVGASNSVSWYQQHPGKAPKLVIYDVTERPSGVPHRFSGSKSGNTASLTVSGLQPEDEADYFCCAYGGKYLVVFGGGTKVTVL
With B13 the Trimeric HA Binding RLU [1] was 27500 RLU.

B14: TCN-557 (5081_A04) (antibody, V domains shown)
VH: QVQLVQSGAEVKKPGASVKVSCKASGHTFTGYYIHWVRQAPGQGLEWMGWINPDSGATSSAQNFQGRVTMTGDTSSSTAYMELSRLSFDDTAVYYCARVLFTSPFDFWGEGTLVTVSS
VL: QAVVTQEPSLAVSPGGTVTLTCGSSTGAVTRGHYPYWFQQKPGQAPRALIYDSAGNRHSWTPARFSGSLLGGKAALTLSGAQPEDEAEYYCLLSYSGVWVFGGGTKLTVL
In the case of B14, the Trimeric HA Binding RLU [2] is reported as 54900 RLU.

B15: TCN-545 (5082_I15) (antibody, V domains shown)
VH: QVQLQQWGAGLLKPSETLSLSCAVFGGSFSDYYWTWIRQPPGKGLEWIGEIKHSGRTNYNPSLESRVTISVDTSKNQFSLKLSSVTAADTAIYYCARGTDPDTEGYCRSGSCSAFDFWGQGTLVTVSS
VL: EIVLTQSPGTLSLSPGERATLSCRASHFVNYRSLAWYQQTPGQVPRLLIYGASTRATGIPDRFSGSGSGTDFTLTISRLEPEDFAVYFCQQYGGSPRYTFGQGTRLEIK
With B15 the Trimeric HA Binding RLU [2] was 1390 RLU.

B16: TCN-551 (5243_D01) (antibody, V domains shown)
VH: EVQLVQSGSEVKKPGESLKISCKGSGYSFSNYWIGWVRHMPGKGLEWMGIIYPGDSDTRYSPSFQGQVTMSADKSSSTVYLQWSSLKASDTAIYYCARRGGHSFGYGSGGDTHSEFDSWGQGTLVTVSS
VL: QSVLTQSPSVSAAPGQKVTISCSGSDSNIGDYFVCWYQHLPGKPPQLLIYENNKRPSGIPDRFSGSKSGTSATLGITGIQTGDEADYYCATWDGSLSAWVFGGGTKLTVL
In the case of B16, the Trimeric HA Binding RLU [1] is reported as 45700 RLU.

B17: TCN-530 (5248_H10a) (antibody, V domains shown)
VH: QVQLVQSGAEVRKPGSSVKVSCKASGGPFMSYAIGWVRQAPGQGLEWMGGINPVFGRPHYAQKFQGRVTIATDDSTKTSYMELSSLTSEDTGMYYCASRYSRSSPGTFESWGQGTLVTVSS
VL: EIVMTQFPATLSVSPGERVTLSCRASQSVSNNLAWYQQKPGQPPRLLIYDASTRATGVPAKFSGTGSGTEFTLSISSLQSEDFAVYYCQQYHNWPPSYSFGLGTKLEIK
In the case of B17, the Trimeric HA Binding RLU [1] is reported as 42500 RLU.

B18: TCN-542 (5079_A16) (antibody, V domains shown)
VH: QVQLQESGPGLVKPSQTLSLTCTVSGGSISSGNYYWNWVRQHPGKGLEWIGYIYYRGSTFYNPSLKSRVTISIDTSKNQFSLRLSSVTAADTAVYYCAKDTRSSLDNYQYGMDVWGQGTTVTVSS
VL: QTVVTQEPSLTVSPGGTVTLTCASSTGAVTSSYFPNWFQQKPGQAPRPLIYSTTIRHSWTPARFSGSLLGGKAALTLSGVQPEDEADYYCLLYSGGDPVAFGGGTKLTVL
In the case of B18, the Trimeric HA Binding RLU [2] is reported as 1670 RLU.

B19: TCN-533 (5256_A17) (antibody, V domains shown)
VH: QVQLVQSGADVKKPGSSVTVSCKASGGSFSNYGINWVRQAPGQGLEWMGGIIPLINAPNYAPKFQGRVTITADMFSNIVSLQLTSLRTDDTAVYYCARRKMTTAIDYWGQGTLVTVSS
VL: QPVLSQPPSASASLGASVTLTCTLSSGFDNYQVAWYQQRPGKGPRFVMRVGNGGNVASKGDGIPDRFSVSGSGLNRYLTIKNIQEDDESDYYCGADHGSGNNFVSPYVFGGGTKLTVL
Binder B19 has a Trimeric HA Binding RLU [1] of 44500 RLU.

B20: TCN-540 (5060_F05) (antibody, V domains shown)
VH: QVQLVQSGGGVVQPGRSLRLSCAASGFTFSSYAMHWVRQAPGKGLEWVAIISYDGNDQYYTDSVKGRFTISRDSSKVYLQMHRLRPEDTAVYYCAKEFETSGYFHGSFDYWGQGILVTVSS
VL: QSALTQPASVSGSPGQSITISCTGTSSDVGGYNYVSWYQQHPGKAPKLLIYEVTNWPSGVSNRFSGSKSGNTASLTISGLQAEDEADYYCSSYAGSSTWVFGGGTRVTVL
With B20 the Trimeric HA Binding RLU [2] was 1800 RLU and the Trimeric HA Binding RLU [1] was 113 RLU.

Source: patent US20150104459A1
